From the supplement of paper PMC9116672
± gives the standard deviation of the averaged measurements or the uncertainty stated by the source.

How the values were obtained:
[1] = duplex melting temperature (HRM, EvaGreen); higher = more stable duplex
Protocol: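 Listed DNA strand annealed 1:1 with its complementary strand (95 °C 5 min, 0.1 °C/s to 20 °C). Melted in 1x NNE buffer (500 mM NaCl, 10 mM Na2HPO4, 1 mM EDTA, pH 7.0) with 1x EvaGreen on a LightCycler96 (37 to 97 °C, 0.1 °C/s). Tm is the peak of -dF/dT at the stated total duplex concentration; 4 replicates are averaged. PS oligos are non-stereospecific (Rp/Sp mixtures).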

[2] = duplex formation free energy ΔG50 (Van't Hoff fit of HRM Tm); higher = less stable duplex; conditions: temperature for dG: 50 °C, NaCl: 500 mM (unadjusted)
Protocol: (§1)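 Duplex of the listed DNA strand with its complement, in 1x NNE buffer (500 mM NaCl, pH 7.0) with 1x EvaGreen. ΔH and ΔS come from a Van't Hoff linear fit of 1/Tm against ln(CT/4) over 1-20 uM, using HRM Tm values.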

[3] = duplex formation enthalpy ΔH (Van't Hoff fit of HRM Tm); higher = less exothermic duplex formation; conditions: temperature for dG: 50 °C, NaCl: 500 mM (unadjusted)
Protocol: as §1

[4] = duplex formation entropy ΔS (Van't Hoff fit of HRM Tm); higher = smaller entropy loss on duplex formation; conditions: temperature for dG: 50 °C, NaCl: 500 mM (unadjusted)
Protocol: as §1

[5] = duplex concentration 1 µM, backbone: PO-PO (both strands phosphodiester DNA)
[6] = duplex concentration 1 µM, backbone: PS-PO (listed strand fully phosphorothioate, complement phosphodiester)
[7] = duplex concentration 1 µM, backbone: PS-PS (both strands fully phosphorothioate)
[8] = duplex concentration 2.5 µM, backbone: PO-PO (both strands phosphodiester DNA)
[9] = duplex concentration 2.5 µM, backbone: PS-PO (listed strand fully phosphorothioate, complement phosphodiester)
[10] = duplex concentration 2.5 µM, backbone: PS-PS (both strands fully phosphorothioate)
[11] = duplex concentration 5 µM, backbone: PO-PO (both strands phosphodiester DNA)
[12] = duplex concentration 5 µM, backbone: PS-PO (listed strand fully phosphorothioate, complement phosphodiester)
[13] = duplex concentration 5 µM, backbone: PS-PS (both strands fully phosphorothioate)
[14] = duplex concentration 7.5 µM, backbone: PO-PO (both strands phosphodiester DNA)
[15] = duplex concentration 7.5 µM, backbone: PS-PO (listed strand fully phosphorothioate, complement phosphodiester)
[16] = duplex concentration 7.5 µM, backbone: PS-PS (both strands fully phosphorothioate)
[17] = duplex concentration 10 µM, backbone: PO-PO (both strands phosphodiester DNA)
[18] = duplex concentration 10 µM, backbone: PS-PO (listed strand fully phosphorothioate, complement phosphodiester)
[19] = duplex concentration 10 µM, backbone: PS-PS (both strands fully phosphorothioate)
[20] = duplex concentration 15 µM, backbone: PO-PO (both strands phosphodiester DNA)
[21] = duplex concentration 15 µM, backbone: PS-PO (listed strand fully phosphorothioate, complement phosphodiester)
[22] = duplex concentration 15 µM, backbone: PS-PS (both strands fully phosphorothioate)
[23] = duplex concentration 20 µM, backbone: PO-PO (both strands phosphodiester DNA)
[24] = duplex concentration 20 µM, backbone: PS-PO (listed strand fully phosphorothioate, complement phosphodiester)
[25] = duplex concentration 20 µM, backbone: PS-PS (both strands fully phosphorothioate)
[26] = backbone: PO-PO (both strands phosphodiester DNA)
[27] = backbone: PS-PO (listed strand fully phosphorothioate, complement phosphodiester)
[28] = backbone: PS-PS (both strands fully phosphorothioate)

Row | Sequence | duplex melting temperature [1, 5] [°C] | duplex melting temperature [1, 6] [°C] | duplex melting temperature [1, 7] [°C] | duplex melting temperature [1, 8] [°C] | duplex melting temperature [1, 9] [°C] | duplex melting temperature [1, 10] [°C] | duplex melting temperature [1, 11] [°C] | duplex melting temperature [1, 12] [°C] | duplex melting temperature [1, 13] [°C] | duplex melting temperature [1, 14] [°C] | duplex melting temperature [1, 15] [°C] | duplex melting temperature [1, 16] [°C] | duplex melting temperature [1, 17] [°C] | duplex melting temperature [1, 18] [°C] | duplex melting temperature [1, 19] [°C] | duplex melting temperature [1, 20] [°C] | duplex melting temperature [1, 21] [°C] | duplex melting temperature [1, 22] [°C] | duplex melting temperature [1, 23] [°C] | duplex melting temperature [1, 24] [°C] | duplex melting temperature [1, 25] [°C] | duplex formation free energy ΔG50 [2, 26] [kcal/mol] | duplex formation free energy ΔG50 [2, 27] [kcal/mol] | duplex formation free energy ΔG50 [2, 28] [kcal/mol] | duplex formation enthalpy ΔH [3, 26] [kcal/mol] | duplex formation enthalpy ΔH [3, 27] [kcal/mol] | duplex formation enthalpy ΔH [3, 28] [kcal/mol] | duplex formation entropy ΔS [4, 26] [cal/mol/K] | duplex formation entropy ΔS [4, 27] [cal/mol/K] | duplex formation entropy ΔS [4, 28] [cal/mol/K]
1 | AACGAATGTCAGCAATT | 62.43 ± 0.59 | 55.7 ± 0.6 | 47.1 ± 0.49 | 64.93 ± 0.41 | 58.37 ± 0.15 | 49.91 ± 0.19 | 66.97 ± 0.37 | 60.36 ± 0.23 | 52.27 ± 0.13 | 68.1 ± 0.45 | 61.59 ± 0.21 | 53.4 ± 0.093 | 69.1 ± 0.15 | 62.44 ± 0.15 | 54.261 ± 0.011 | 70.52 ± 0.15 | 63.69 ± 0.16 | 55.38 ± 0.048 | 71.52 ± 0.29 | 64.46 ± 0.11 | 56.34 ± 0.12 | -12.5 ± 0.15 | -11.05 ± 0.039 | -9.166 ± 0.023 | -74.4 ± 2.8 | -74.7 ± 1.1 | -68.5 ± 1.9 | -192 ± 8.3 | -197 ± 3.4 | -184 ± 5.7
2 | AATGAGGAGTGAAATGG | 61.5 | 54.3 ± 0.28 | 45.74 ± 0.18 | 62.9 ± 0.89 | 57.29 ± 0.22 | 48.55 ± 0.12 | 65.1 ± 0.71 | 59.317 ± 0.05 | 50.54 ± 0.062 | 66.06 ± 0.59 | 60.42 ± 0.089 | 51.494 ± 0.05 | 67.14 ± 0.48 | 61.271 ± 0.056 | 52.36 ± 0.1 | 68.46 ± 0.62 | 62.43 ± 0.043 | 53.52 ± 0.054 | 69.63 ± 0.3 | 63.28 ± 0.098 | 54.406 ± 0.047 | -12 ± 0.16 | -10.83 ± 0.037 | -8.817 ± 0.012 | -73.5 ± 3.3 | -75.7 ± 1.2 | -72.8 ± 1.3 | -190 ± 9.7 | -201 ± 3.6 | -198 ± 4
3 | AATGTCGAACAGCAATT | 63.06 ± 0.22 | 56.56 ± 0.11 | 47.17 ± 0.34 | 65.17 ± 0.47 | 59.08 ± 0.19 | 50.7 ± 0.2 | 67.17 ± 0.36 | 61.32 ± 0.12 | 53 ± 0.2 | 68.45 ± 0.29 | 62.61 ± 0.066 | 54.22 ± 0.19 | 69.46 ± 0.13 | 63.46 ± 0.16 | 54.99 ± 0.23 | 70.74 ± 0.12 | 64.55 ± 0.19 | 56.34 ± 0.18 | 71.86 ± 0.12 | 65.45 ± 0.21 | 57.25 ± 0.45 | -12.5 ± 0.15 | -11.23 ± 0.064 | -9.264 ± 0.033 | -74.4 ± 2.7 | -74.3 ± 1.7 | -63.7 ± 2.3 | -192 ± 8 | -195 ± 5.2 | -169 ± 7
4 | ACATGACTCATCTTAGCCGGCGAG | 77.5 ± 1.1 | 71.03 ± 0.65 | 63.8 ± 0.81 | 79.47 ± 0.48 | 72.33 ± 0.54 | 65.78 ± 0.62 | 80.58 ± 0.42 | 73.6 ± 0.59 | 67.03 ± 0.46 | 81.54 ± 0.25 | 74.24 ± 0.52 | 68.06 ± 0.18 | 82.18 ± 0.17 | 75.03 ± 0.16 | 68.59 ± 0.11 | 82.95 ± 0.13 | 75.79 ± 0.14 | 69.29 ± 0.1 | 83.69 ± 0.2 | 76.42 ± 0.052 | 69.97 ± 0.13 | -19.9 ± 0.5 | -17.8 ± 0.41 | -14.53 ± 0.14 | -128 ± 5.6 | -133 ± 5.9 | -115 ± 2.6 | -336 ± 16 | -356 ± 17 | -311 ± 7.6
